Measured values taken from a protein production outcome set (Wang et al. 2014).

assay: label from the status in PepcDB records

Sequence | protein production
MLDNKDIATPSRTRALLDKYGFNFKKSLGQNFLIDVNIINNIIDASDIDAQTGVIEIGPGMGSLTEQLARHAKRVLAFEIDQRLIPVLNDTLSPYDNVTVINEDILKANIKEAVENHLQDCEKIMVVANLPYYITTPILLNLMQQDIPIDGYVVMMQKEVGERLNAEVGSKAYGSLSIVVQYYTETSKVLTVPKSVFMPPPNVDSIVVKLMQRTEPLVTVDNEEAFFKLAKAAFAQRRKTINNNYQNYFKDGKQHKEVILQWLEQAGIDPRRRGETLSIQDFAKLYEEKKKFPQLEN | failed
MLDPILLLGLVVAVLAMSLVAQALSSYFRIPFIIFLLIEGIIAGPEVLNLLNPALYVDGLSTIVAISVSVIVFDGGLHIDLKHIRMVQESVLKLTTIGVFVTFLGTTVLTSLLIEIPLELAALFGALVTATGPTVITPIVRNIQISHKLGKILELEGVLNDAASVILAAMVFEWVAAELSGTDAVVFILYRLGIGIALGSLSGFALRWFFTRGKAISNRTARLVSLTAVFSCFVFSEYLGNESGILAVAIFGIILGTSDFPYKDTIKEFKSDIVIVMLSLIFILLAAMIKFEYILRIGASGVALVLLLIFVIRPFAVFVSMWNSQIGTNEKLFISFVGPRGVVPTAVATYFAIKLDSMGIPGGQTLVGLVFLTVIITVFMSGSLSKKVAEVLEVIPMEILIIGGGKVGRILAERFDKRGENVVVVDISEDNCKKCMELGIRTVQGDAGDVNVLKKAGIENAKYVVATTNQDNTNLLFCQLAKASFGFRGDQLVARVNEIENLQAFWNLGIRSMSPAMTTAVVLDNMIGRPHLFSMCEVGGEGEMMEVKVTNPRVIGKAIKDIQFPEKSLLVMVQRGSDSIIAHGNLVLEYEDIVTVIGEGDAAKQTAAILHK | failed
MLDTLVFGCVAFPLLAALAVYFVRGEAARRLIVPGAVAVTALSALGMAGSGPIMFAPKSFLGIGLDGLIAFLDFALLFYILYLGTKMRHLLIMGMTVLQIVGLIYLEFFLMDHGATVPGFYVDSLSLTMVLIISFVGGLICVYGLGYMKEHEEHLHLPQTKQPRFFFFVVLFLGAMNGLVLSNNLAWMYFFWEITTLCSFMLIGHDGTDEAKTNATRALWMNMVGGVAFVFALLFLQKGMGTLSVQDILARAVEPEMRTTAVLLPMAMLCLAGFTKSAQLPFQSWLCGAMVAPTPVSALLHSSTMVKAGVYLILRMAPGYAGTALSTGVALFGAFTFIVTSALAAGQSNGKKILAYSTIANLGLIVACAGINTAASVAAAMMLIIFHAISKGLLFLCVGAIEQKIGSRNIEDMRNLFERMPRTAVITVIGIVTMMLPPFGMLIAKWMAIESAAGAMSAMPLLVIMIALGSALTVLFWARWAGIMLGSSRPGFGPMQEEQDITIRLPLVSLVGGALVLSLLAPFVYTGLVEPAIAMYAKASAYGVSIGTIGNTMGAFAVYPLYLLLGAGFYYAWRAARNTPDSAASLPYMGGSQMTQDGVVGFNGPMNQFVPNAAGNYYLEKLFGEAQLTKPGNVVAIVLLILMIGGML | failed
MLEFTKRSLMNKYNINERVLELYERALNDVEKEFKYYDEIREYNQLKVLKAFQEERISESHFTNSSGYGYNDIGRDSLDRVYANIFNTESAFVRPHFVNGTHAIGAALFGNLRPNDTMMSICGMPYDTLHDIIGMDDSKKVGSLREYGVKYKMVDLKDGKVDINTVKEELKKDDSIKLIHIQRSTGYGWRKSLRIAEIAEIIKSIREVNENVIVFVDNCYGEFVEEKEPTDVGADIIAGSLIKNIGGGIATTGGYIAGKEEYVTQATFRVTVPGIGGECGSTFGVMRSLYEGLFMAPHVTIEAVKGAVFCARIMELAGFDVLPKYNDKRTDIIQAIKFNDEKKLIDFIKGIQTASPVDSFVQCEAWDMPGYEDKVIMAAGTFVQGASIELSADAPIREPYIGYLQGGLTFDHAKLGVLIALSKLIM | not failed
MLEHHFRSLKAIDRVRAQWLGPQIERYVQSLDELHTSNATVRQHIRALGHFNDFVIARGVTKLEALPDHVDAFVEYWHAGHAGWCKNNQDRAAVTAQSRVPVERMLCLALPDYTRPNNRPAMPFANTVPGFLPFLNDEKGLRQESQQRYLYTLRPFEAYLNRGGIALSGLEPAHISRFLEERAKTLHKAGMRDTAGALRIFLRYLHREGIVATDLVRSVPRGRIYRQASIPRAIGWQDVERLLTSIDRRSILGKRDYAILTLLASYGLRAREIAALCLDDFDWTHAQISIPMRKGGHSTRYPLSATVGDAVISYLQARRSDVPHRQVFLTARSPYIPMRHWTVSAMVGIRMRDIGIQVTRAGSHTLRHACVQHLVEADMPFKVIGDYVGHSHPSSTLVYGKVAVHKLRQIVLFQGEDVL | failed
MLELDGSGAEPLRDGDPRWIGPIPLIGRLGSGGMGRVYLGVHEGRYAAVKQLLPSVVAEDEDFLRRFGHELDNLARLPGEATAPLLAGDREARPPWFATAYVPGLTLTEALEVHGGPLPAGALWLLLREAAKGLAAVHALDMVHRDLKPSNVMLTLEGLTLIDFGVARAAEQSRLTRTGMVVGTPAYMSPEQASGRRASSGAVDVFALGSVLAYAASGRPPFGDESGHAVLYRIVHEEPDLGPLRELDPELADVVASCLDKDHEGRPTAAELLETAERHGPYEPPLWPEALTERLTERAAFVTKLPERADLPEPEPEPERDPGPGPGSAVLGRRDPGRSDHRRRHRVLFAVVPVVVAAGATLAVQLLPYTFAPGDRADASPSSSAPVSSAPAASPAGPGKASRTATPDQDRSASPSRSPGEQGDRRGDADGGGGAAGGSQGDADAGGAGSGSGSGSGSAGDGGAGAGSGAGSGDGSGSDSGSGSGADSGSGAGSGSGSGSGSGSGDGGASGSGVFTLKNAKNGRCLTTAHADAPYDGDCTGDAATWTFRSRPDGTVWIINGLLGRCIYTAAIGHPVFSFPCGRTTGQEWRVGSGGTLKNAATGGCVTVSAMSGTGVRNEACEQSAAQRWTRS | failed
MLERILEPEVMDTEAEAMDYDAMDFQAVNLAFAQRACQLGPSKATVLDAGTGTARIPILLAQLRPAWQITAIDFARSMLAIAKENVIAAGCETQICLEFVDAKQLPYANGSFDGVIANSLCHHLPRPLDFLREVKRVLKPHGFLLIRDLIRPESPEKLADFVTAIGSDYNDQQRKLFADSLHASLTIAEIQDYLQHLGWVGDDGPNLELHLYQSSDRHWTLEKKFQSSTIVQR | failed
MLESFGEHRWLLWAVASAVLACTEMLSGEFTLLMLAAGAGAGAITAAIVPGMWLLQVIVAAVVAALLLTVLRPTLLRRVREAPGYRSALDKLVGSDGVATSDITDGHGQVKVDGEEWSARALEPGSTIAAGEKIEVYEIDGATLVVYPVFRSLSS | failed
MLETLYAFFDLGQFSQSPINGSHNPGLVILSYCVALLASYTAILTLERVQIYQAKVARYSWLIVSAVISGVGVWSMHFIGMLAFELHLPMSHSVLLTLISVVPAIVGSFIAMKIQMSLSSVRATLIAGTVLGAGIGLMHYTGMAAMEMSAHLRYDPLWFVLSVFVAVSLGIIALLAYRHYKKSERTSWFRRRSAQIVVAAIIALAISGMHYTAMIAANFYPTRAPDAVFSGHGNWLAYVVGIGSCLTAIMAIIASQIDRRLQQQQKLAQMSAEQLYEVISAIDDGLLLFDEHNRVLLANQAFTRLTGDDLERIKGSKLNIEDYIERSDKLLENIKNSLARRVAWQGKVNVRKRSGTTFPVRLSISKVRYNQQKERHFVATVTDISAEVESSERIRYLAYNDALTGLANRRSLLDHLQDQLATYKEAGQNGALILCDIDKFKILNNTLGSDMGDLLLKRVAERLQSSTKANSFLARLSANEFAVVLTGLERGNSVNIKQQLLTRIYQLLDQLQQPYQLNSYTHLCSFSAGASLFDDSESNAETLMTQSGLALSHSKRKGTGEVSLFRQEFADAVSKRVKLEEQLRNAIKQNEFELYLQPQVNIESKPTGAEALIRWKQSDGRFVSPADFIPLAEETGLIVPLGYWITERACQILQQWQQSPEKAKMQLSINVSAKQFQQPEFVEQVQLLVEKYEIRPHRLKLELTESLLMDDISSVTNKIKQLKRLGIEFALDDFGTGYSSLSYLMQIPFDTLKIDVSFVRNMLDSMEKAQIVYTIIQLGESLKLNIVAEGVETEEQFNYLARLNCDTFQGYLFSKPVPESEFLADKTAP | failed
MLEVVYIVGAFGSPLLTPPTLAVAGFLIAVLMGLEYGVLWVLTGESLNRELILVISNIVYSIAWSITALPFTPIYYTLQPYFSQPLLIYLYLALFIGSILLGVIPAIMYIRKYLQFNKIQKEFKQLELDYKSINQEYSEINTRLNKAKEEINNVMDKINKAKELHETALRDPDLIVTALDKKPEIPEVIRPNVNYVVAGLGGTGTALLEALIDYLVSKNVIKEDGTNPFLFVAFDTNQASIARLRKKYEYTPVGKLLYTFNNFEALTTANIISHNPWLAGLNVDVIQGSGMKRAIGYASYNTVKEAMMEDILRRLSDLIAKTRTNRIFLIVFTALGGGTGSGSFIHFTKDFISRLGRITGDSEPYVRVSGM | failed
MLFDEKEILAITRWAKLYANQSPDRILLGSNDIPPEYRAAVATQIELWPRLRNKLPQWAGISSLYIPSRLSLEQSSGAVTSSYKSRFIREGTKVVDLTGGLGIDFIALMSKASQGIYIERNDETAVAARHNIPLLLNEGKDVNILTGDFKEYLPLIKTFHPDYIYVDPARRSGADKRVYAIADCEPDLIPLATELLPFCSSILAKLSPMIDLWDTLQSLLHVQELHVVAAHGEVKELLVRMSLNEATIPPEKVPIHAINLLLEDTVIPFIFTMEEERSISIPYTDSIDKYVYEPHTALLKAGAFKTVAYRLGLRKLHPNSHLYTSEAYESAFPGRTFVLEEIIPFSTSVLKQLRKVVPQASISCRNFPLSPIELRQRSKMADGGEKTLMGTTMADGKKVLLLLRKAE | not failed
MLFFADRSPFVRPLSGYAPVTPAAPRSTGSAAAPPPSPAVLDDRSGTEGDVTPMMAQYLAVKAAHPDCLLFYRMGDFYEMFFEDAVKAAETLDIALTKRGRHAGADIPMCGVPIHSHEGYLSRLIRAGIKVAICEQMEDPAEARRQRGYKAVVRRDVIRVVTAGTLTEDELLDARAHNYLAAVVRLRDAVGMAWVDVSTGDLVAQPLAEADIGPALARLAPGEVLMPEKLAGDPALREILAPLAGRISPLPASRFDSENARKRVEGLFGVKALDGFGGFGRAEVAAIGALIDYVELTQVGRLPRLSPPRRLSLGAILEIDGATRRNLELTETLGGGRKGSLLARIDCTVTGAGARLLAERLAAPLTDPAQIGARLDGVGFLVSAERVRGDLRDTLRGCPDIARALSRLSLGRGGPRDLAAIGEALSRIPALRVLVVGAGLGEPPTELTAALIDLGSHEGLVDLLGRALDADLPLLARDGGFIRPGYDAGLDELRALRDEGRRLIAGLQARYASETAIPALKIKHNNVLGYFIEVAAGRADKLMAAGGPFLHRQTLASQVRFTTVELSELEDKIRGAADKALALEQALFATLCAEVLGCAADIARAANGLACLDVAAALADLAARERYARPVVDNSTAFRIHKGRHPVVEAALADQAGPAFVANDCDLAPDQRLWLLTGPNMAGKSTFLRQNALIAVLAQMGSFVPAESAEIGVIDRLFSRVGAADDLARGRSTFMVEMVETAAILNQATERSLVILDEIGRGTATYDGLSIAWATVESLHDATRCRALFATHYHELTALASRLDRLSCHTLRIKEWKDQVVFLHEVGPGAADRSYGIHVAKLAGLPAAVIARAEQVLAILEKGDASSAATRLADDLPLFAAARPRAGLPTPPPGPHPLAEALNAINPDEMTPREALDALYRLKAVMKRE | failed
MLFIKPADLREIVTFPLFSDLVQCGFPSPAADYVEQRIDLNQLLIQHPSATYFVKASGDSMIDGGISDGDLLIVDSAITASHGDIVIAAVDGEFTVKKLQLRPTVQLIPMNSAYSPITISSEDTLDVFGVVIHVVKAMR | failed
MLFISATNTNAGKTTCARLLAQYCNACGVKTILLKPIETGVNDAINHSSDAHLFLQDNRLLDRSLTLKDISFYRYHKVSAPLIAQQEEDPNAPIDTDNLTQRLHNFTKTYDLVIVEGAGGLCVPITLEENMLDFALKLKAKMLLISHDNLGLINDCLLNDFLLKSHQLDYKIAINLKGNNTAFHSISLPYIELFNTRSNNPIVIFQQSLKVLMSFALK | not failed
